How the values were obtained:
Assay type in all cases: cell-based
[1] = tested on: CD45^+ leukocyte cell; test: Uptake and storage of iron binding proteins by CD45+ leukocyte cells
Experimental: (§1) Obtained cells are incubated in ferritin solution for a time and at the concentration sufficient to ensure proper ratio of ferritin/cell for their full load and also to ensure proper drug content to obtain therapeutic effect or contrast for proper imaging. The time and concentration may vary depending on the number of molecules encapsulated/adsorbed into the ferritin cage, status of cell activation, condition and number of their intended administration.
For example, to ensure proper load with ferritins, cells are incubated for 1-4 hours in ferritin solution 0.8 mg/ml in standard culture conditions. The frame of ferritin concentration may vary at least between 0.01 and 4 mg/ml as well as incubation time (5 min-6 hours or more). Adjusting time and concentration of ferritin load to cells, the influence of ferritin and treatment conditions on cell viability should be minded.
as §1, with “haemoglobin” for “ferritin”, “haemoglobin/cell” for “ferritin/cell”, “linked with” for “encapsulated/adsorbed into”, “haemoglobin molecule,” for “ferritin cage,”, “administration. […]” for “administration.”

[2] = tested on: EMT6; test: Ferritin transfer from RAW264.7 macrophages to EMT6 cells under oxidative stress
Text: FIG. 27: Ferritin transfer was examined in cancer cells (EMT6) co-cultured with ferritin-loaded macrophages (RAW264.7) for 2 hrs. Three experimental conditions were used: “ctrl” (normal co-culture, no stress); “EMT6 OS” when EMT6 cells were subjected to the oxidative stress before co-culture and then co-cultured with macrophages at normoxic conditions and “co-culture OS” when both cell types were subjected to the oxidative stress before the co-culture. […] It can be related with higher load of ferritin due to oxidative stress and therefore more efficient transfer, or oxidative stress triggers macrophages to more efficiently deliver ferritins to cancer cells in order to reduce oxidative stress in neighboring cells.

[3] = tested on: cancer cells; test: Transfer of iron binding proteins from loaded leukocytes to co-cultured cancer cells
Text: However, in case of cancer cells the ratio of both cell types is crucial. The more macrophages the better and faster the transport is. The most efficient transfer to the cancer cells was observed when ratio of macrophages to cancer cells was 1:1 or more.
This transfer of compounds conjugated with anticancer drugs made the effect inducing apoptosis in cancer cells (FIG. 6, 13).
However, the ratio of both cell types is important. The more monocytes the better and faster the transport is. The most efficient transfer to the cancer cells was observed when ratio of monocytes to cancer cells was 1:1 or more.
However, the ratio of both cell types is crucial. The more granulocytes the better and faster the transport is. The most efficient transfer to the cancer cells was observed when ratio of granulocytes to cancer cells was 1:1 or more.
However, the ratio of both cell types is crucial. The more lymphocytes the better and faster the transport is. The most efficient transfer to the cancer cells was observed when ratio of lymphocytes to cancer cells was 1:1 or more.

B1: ferritins: recombinant mouse ferritin protein of SEQ ID NO: 4; mammalian ferritin H and/or L homopolymers (protein)
chain: MTTASPSQVRQNYHQDAEAAINRQINLELYASYVYLSMSCYFDRDDVALKNFAKYFLHQSHEEREHAEKLMKLQNQRGGRIFLQDIKKPDRDDWESGLNAMECALHLEKSVNQSLLELHKLATDKNDPHLCDFIETYYLSEQVKSIKELGDHVTNLRKMGAPEAGMAEYLFDKHTLGHGD
[1]; after ferritin loading (FIG. 9)
  release of absorbed ferritin to the culture medium: do not release it to the culture medium
[1]; incubation 1-4 hours in protein solution (ferritin 0.8 mg/ml; haemoglobin, transferrin 0.1 mg/ml), standard culture conditions
  uptake of iron binding protein by cells: very easily uptake
[2]; EMT6 OS: EMT6 cells subjected to oxidative stress before 2 hrs co-culture
  ferritin received by cancer cells from macrophages versus control: more ferritins than control cells
[2]; co-culture OS: both cell types subjected to oxidative stress before 2 hrs co-culture
  ferritin uptake by cancer cells from macrophages: even more efficient
[3]; FIG. 11
  specificity of transfer from macrophages: cancer cells versus non-cancer cells: much more specific to cancer cells than to non-cancer cells
[3]; loaded granulocytes (FIG. 15)
  transport to cancer cells from granulocytes: very easily transport
[3]; loaded lymphocytes (FIG. 16)
  transport to cancer cells from lymphocytes: very easily transport
[3]; loaded macrophages, mouse mammary, colon, canine mammary, human breast, pancreatic, bladder cancer cells
  transport to cancer cells from macrophages: very easily transport
[3]; loaded monocytes (FIG. 14)
  transport to cancer cells from monocytes: very easily transport
